Laboratory results published in patent US6824971 (SLOAN KETTERING INSTITUTE FOR CANCER RESEARCH, dated 2004).

B3: Smad4/DPC4 C-terminal domain, amino acids 294-552 (other)
chain: MPPHPGHYWPVHNELAFQPPISNHPAPEYWCSIAYFEMDVQVGETFKVPSSCPIVTVDGYVDPSGGDRFCLGQLSNVHRTEAIERARLHIGKGVQLECKGEGDVWVRCLSDHAVFVQSYYLDREAGRAPGDAVHKIYPSAYIKVFDLRQCHRQMQQQAATAQAAAAAQAAAVAGNIPGPGSVGGIAPAISLSAAAGIGVDDLRRLCILRMSFVKGWGPDYPRQSIKETPCWIEIHLHRALQLLDEVLHTMPIADPQPLD
notes: Construct for mammalian cells (pCMV5), Flag- or HA-tagged; also called Smad4(C); Smad4 C domain

Assays:
[1] = target: the molecule itself; assay: gel filtration of recombinant full-length protein
Experimental: The full-length Smad4/DPC4 proteins, both wild-type and point mutants, were overexpressed at room temperature in E.coli using a pET vector (Novagen). Smad4/DPC4 protein in the soluble fraction of the E. coli lysate was partially purified by ion exchange chromatography (Q-Sepharose) and was applied to a gel filtration column (Superdex200) in 50 mM Tris, 200 mM NaCl, 5 mM DTT, pH 8.0. Aliquots from the fractions corresponding to molecular weight standards between 440 kDa and 25 kDa were taken for immunoblots with a rabbit polyclonal antibody raised against the Smad4/DPC4-C-terminal domain. The results were visualized with the ECL Western analysis and detection system (Amersham). In addition, the WT full-length Smad4/DPC4 was also cloned as a GST-fusion protein and purified to near homogeneity over a glutathione column. The fusion protein was then cleaved with Thrombin and the. Smad4/DPC4 protein was futher purified by anion-exchange chromatography (Source 15Q column).
The fractions were visualized with Coomassie staining. […] Gel filtration fractions of partially purified wild-type and mutant Smad4/DPC4 proteins were analyzed by immunoblots with anti-Smad4/DPC4 antibody.

[2] = target: T1, Recombinant Smad4/DPC4 C-terminal domain, residues 319-552 (human); assay: crystal structure, trimer (three interfaces in total); settings: remark: other sources report otherwise
T1 chain: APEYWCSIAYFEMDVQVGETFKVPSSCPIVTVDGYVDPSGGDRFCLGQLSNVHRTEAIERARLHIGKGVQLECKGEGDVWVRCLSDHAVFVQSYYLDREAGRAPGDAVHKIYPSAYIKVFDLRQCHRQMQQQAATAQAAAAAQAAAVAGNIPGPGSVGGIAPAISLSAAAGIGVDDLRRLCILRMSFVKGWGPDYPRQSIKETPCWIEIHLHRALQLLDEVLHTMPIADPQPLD

[3] = target: the molecule itself; assay: co-IP of differentially tagged constructs, COS cells
From the text: (§1) The full-length Smad4/DPC4 and Smad2, Smad4/DPC4-C-terminal domain encoding amino acids 294–552 (SEQ ID NO.:1) and the Smad2-C-terminal domain encoding amino acids 248–467 (SEQ ID NO.:3) were subcloned into the mammalian expression vector pCMV5. All Smad4/DPC4 point mutations were generated by a polymerase chain reaction (PCR)-based method and were confirmed by DNA sequencing. Mammalian COS-1 cells were transiently transfected with the indicated FLAG- and HA-tagged constructs by the DEAE-dextran method. Two days after transfection, cells were incubated with 200 pM TGF-β1 for one hour. Cells were lysed and subjected to immunoprecipitation followed by immunoblot as described. The wash buffers contained 150 mM NaCl for all immunoprecipitation experiments except for the homo-oligomerization assays of the full-length wild-type Smad4/DPC4 and point mutants, where 250 mM NaCl was employed to better differentiate the WT and mutant activities.
(§2) To assay for homo-oligomerization, mammalian COS-1 cells were transiently transfected with Flag-tagged wild-type Smad4/DPC4-C-terminal domain (WT) and HA-tagged WT or mutant constructs. For hetero-oligomerization, cells were transfected with Flag-tagged Smad2 C-terminal domain and HA-tagged Smad4/DPC4 C-terminal domain WT or mutant constructs together with constitutively active TGF-β type I receptor construct. […]

[4] = target: B3; assay: co-IP, Flag-WT with HA-mutant, COS-1 cells
From the text: as §1, §2

[5] = target: B3; assay: co-IP, Flag-WT C-terminal domain with HA-mutant, COS-1 cells
From the text: as §1, §2

B1: Smad4/DPC4 full-length Gly508Ser (other)
chain: MDNMSITNTPTSNDACLSIVHSLMCHRQGGESETFAKRAIESLVKKLKEKKDELDSLITAITTNGAHPSKCVTIQRTLDGRLQVAGRKGFPHVIYARLWRWPDLHKNELKHVKYCQYAFDLKCDSVCVNPYHYERVVSPGIDLSGLTLQSNAPSSMMVKDEYVHDFEGQPSLSTEGHSIQTIQHPPSNRASTETYSTPALLAPSESNATSTANFPNIPVASTSQPASILGGSHSEGLLQIASGPQPGQQQNGFTGQPATYHHNSTTTWTGSRTAPYTPNLPHHQNGHLQHHPPMPPHPGHYWPVHNELAFQPPISNHPAPEYWCSIAYFEMDVQVGETFKVPSSCPIVTVDGYVDPSGGDRFCLGQLSNVHRTEAIERARLHIGKGVQLECKGEGDVWVRCLSDHAVFVQSYYLDREAGRAPGDAVHKIYPSAYIKVFDLRQCHRQMQQQAATAQAAAAAQAAAVAGNIPGPGSVGGIAPAISLSAAAGIGVDDLRRLCILRMSFVKSWGPDYPRQSIKETPCWIEIHLHRALQLLDEVLHTMPIADPQPLD
notes: Full-length point mutant; also called G508S
**Q.** Does B1 bind [1]?
**A.** binds

B2: Recombinant Smad4/DPC4 C-terminal domain, residues 319-552, O70437 319-552 (protein)
chain: APEYWCSIAYFEMDVQVGETFKVPSSCPIVTVDGYVDPSGGDRFCLGQLSNVHRTEAIERARLHIGKGVQLECKGEGDVWVRCLSDHAVFVQSYYLDREAGRAPGDAVHKIYPSAYIKVFDLRQCHRQMQQQAATAQAAAAAQAAAVAGNIPGPGSVGGIAPAISLSAAAGIGVDDLRRLCILRMSFVKGWGPDYPRQSIKETPCWIEIHLHRALQLLDEVLHTMPIADPQPLD
**Q.** B2 was tested. Which buried surface area [2] did it give?
**A.** 4800 Å^2

**Q.** Does B3 bind [3]?
**A.** binds

B4: Smad4/DPC4 C-terminal domain Val370Asp (other)
chain: MPPHPGHYWPVHNELAFQPPISNHPAPEYWCSIAYFEMDVQVGETFKVPSSCPIVTVDGYVDPSGGDRFCLGQLSNDHRTEAIERARLHIGKGVQLECKGEGDVWVRCLSDHAVFVQSYYLDREAGRAPGDAVHKIYPSAYIKVFDLRQCHRQMQQQAATAQAAAAAQAAAVAGNIPGPGSVGGIAPAISLSAAAGIGVDDLRRLCILRMSFVKGWGPDYPRQSIKETPCWIEIHLHRALQLLDEVLHTMPIADPQPLD
notes: HA-tagged; tumor-derived trimer interface mutation; also called V370D
**Q.** Does B4 bind [4]?
**A.** no binding

B5: Smad4/DPC4 C-terminal domain Gly508Ser (other)
chain: MPPHPGHYWPVHNELAFQPPISNHPAPEYWCSIAYFEMDVQVGETFKVPSSCPIVTVDGYVDPSGGDRFCLGQLSNVHRTEAIERARLHIGKGVQLECKGEGDVWVRCLSDHAVFVQSYYLDREAGRAPGDAVHKIYPSAYIKVFDLRQCHRQMQQQAATAQAAAAAQAAAVAGNIPGPGSVGGIAPAISLSAAAGIGVDDLRRLCILRMSFVKSWGPDYPRQSIKETPCWIEIHLHRALQLLDEVLHTMPIADPQPLD
notes: HA-tagged; also called G508S; developmental L3 loop mutation
**Q.** Does B5 bind [5]?
**A.** binds

B6: Smad4/DPC4 C-terminal domain Arg361Cys (other)
chain: MPPHPGHYWPVHNELAFQPPISNHPAPEYWCSIAYFEMDVQVGETFKVPSSCPIVTVDGYVDPSGGDCFCLGQLSNVHRTEAIERARLHIGKGVQLECKGEGDVWVRCLSDHAVFVQSYYLDREAGRAPGDAVHKIYPSAYIKVFDLRQCHRQMQQQAATAQAAAAAQAAAVAGNIPGPGSVGGIAPAISLSAAAGIGVDDLRRLCILRMSFVKGWGPDYPRQSIKETPCWIEIHLHRALQLLDEVLHTMPIADPQPLD
notes: HA-tagged; tumor-derived trimer interface mutation; also called R361C
**Q.** Does B6 bind [4]?
**A.** no binding
